Measured values reported in patent US20230002480A1.

How the values were obtained:
Test in all cases: cell-based or functional assay
[1] = target: HIV-1 Env of pseudovirus 1054_07_TC4_1499 (HIV-1)
[2] = target: HIV-1 Env of pseudovirus 249M B10 (HIV-1)
[3] = target: HIV-1 Env of pseudovirus 62357_14_D3_4589 (HIV-1)
[4] = target: HIV-1 Env of pseudovirus 6244_13_B5_4576 (HIV-1)
[5] = target: HIV-1 Env of pseudovirus 6535.3 (HIV-1)
[6] = target: HIV-1 Env of pseudovirus AC10.0.29 (HIV-1)
[7] = target: HIV-1 Env of pseudovirus BF1266.431a (HIV-1)
[8] = target: HIV-1 Env of pseudovirus CAP210.2.00.E8 (HIV-1)
[9] = target: HIV-1 Env of pseudovirus CAP45.2.00.G3 (HIV-1)
[10] = target: HIV-1 Env of pseudovirus CNE17 (HIV-1)
[11] = target: HIV-1 Env of pseudovirus CNE19 (HIV-1)
[12] = target: HIV-1 Env of pseudovirus CNE20 (HIV-1)
[13] = target: HIV-1 Env of pseudovirus CNE30 (HIV-1)
[14] = target: HIV-1 Env of pseudovirus CNE52 (HIV-1)
[15] = target: HIV-1 Env of pseudovirus CNE53 (HIV-1)
[16] = target: HIV-1 Env of pseudovirus CNE58 (HIV-1)
[17] = target: HIV-1 Env of pseudovirus Ce1086_B2 (HIV-1)
[18] = target: HIV-1 Env of pseudovirus Du172.17 (HIV-1)
[19] = target: HIV-1 Env of pseudovirus HIV-16845-2.22 (HIV-1)
[20] = target: HIV-1 Env of pseudovirus Q461.e2 (HIV-1)
[21] = target: HIV-1 Env of pseudovirus Q842.d12 (HIV-1)
[22] = target: HIV-1 Env of pseudovirus TRO.11 (HIV-1)
[23] = target: HIV-1 Env of pseudovirus WEAU_d15_410_787 (HIV-1)
[24] = target: HIV-1 Env of pseudovirus ZM135M.PL10a (HIV-1)
[25] = target: HIV-1 Env of pseudovirus ZM247v1(Rev-) (HIV-1)

N49P19 (antibody) showed an IC50 [1] of 2.85 µg/mL, an IC80 [1] of 11.7 µg/mL and an MPI [1] of 99. The IC50 [2] was > 50 µg/mL, the IC80 [2] was > 50 µg/mL and the MPI [2] was 39. For the same substance, the IC50 [3] was 37.4 µg/mL, the IC80 [3] was > 50 µg/mL and the MPI [3] was 51. It also gave an IC50 [4] of 0.571 µg/mL, an IC80 [4] of 1.82 µg/mL and an MPI [4] of 100. It also gave an IC50 [5] of 9.09 µg/mL, an IC80 [5] of 28.3 µg/mL and an MPI [5] of 95. The IC50 [6] was > 50 µg/mL, the IC80 [6] was > 50 µg/mL and the MPI [6] was 13. For the same substance, the IC50 [7] was > 50 µg/mL, the IC80 [7] was > 50 µg/mL and the MPI [7] was 15. For the same substance, the IC50 [8] was > 50 µg/mL, the IC80 [8] was > 50 µg/mL and the MPI [8] was 0. For the same substance, the IC50 [9] was > 50 µg/mL, the IC80 [9] was > 50 µg/mL and the MPI [9] was 5. The IC50 [10] was > 50 µg/mL, the IC80 [10] was > 50 µg/mL and the MPI [10] was 30. For the same substance, the IC50 [11] was 20.7 µg/mL, the IC80 [11] was > 50 µg/mL and the MPI [11] was 59. For the same substance, the IC50 [12] was 0.124 µg/mL, the IC80 [12] was 0.817 µg/mL and the MPI [12] was 99. The IC50 [13] was 1.27 µg/mL, the IC80 [13] was 4.28 µg/mL and the MPI [13] was 100. For the same substance, the IC50 [14] was 0.175 µg/mL, the IC80 [14] was 0.491 µg/mL and the MPI [14] was 100. The IC50 [15] was 1.5 µg/mL, the IC80 [15] was > 50 µg/mL and the MPI [15] was 78. The IC50 [16] was > 50 µg/mL, the IC80 [16] was > 50 µg/mL and the MPI [16] was 43. The IC50 [17] was 0.613 µg/mL, the IC80 [17] was 2.68 µg/mL and the MPI [17] was 97. For the same substance, the IC50 [18] was > 50 µg/mL, the IC80 [18] was > 50 µg/mL and the MPI [18] was 30. For the same substance, the IC50 [19] was 14.5 µg/mL, the IC80 [19] was > 50 µg/mL and the MPI [19] was 73. For the same substance, the IC50 [20] was 0.774 µg/mL, the IC80 [20] was 4.05 µg/mL and the MPI [20] was 100. The IC50 [21] was 0.182 µg/mL, the IC80 [21] was 0.601 µg/mL and the MPI [21] was 100. The IC50 [22] was 0.394 µg/mL, the IC80 [22] was 1.3 µg/mL and the MPI [22] was 100. For the same substance, the IC50 [23] was 0.177 µg/mL, the IC80 [23] was 0.612 µg/mL and the MPI [23] was 100. For the same substance, the IC50 [24] was > 50 µg/mL, the IC80 [24] was > 50 µg/mL and the MPI [24] was 0. For the same substance, the IC50 [25] was > 50 µg/mL, the IC80 [25] was > 50 µg/mL and the MPI [25] was 5.

N49P9 (antibody) gave an IC50 [1] of 0.885 µg/mL, an IC80 [1] of 2.44 µg/mL and an MPI [1] of 100. For the same substance, the IC50 [2] was 0.203 µg/mL, the IC80 [2] was 1.41 µg/mL and the MPI [2] was 97. For the same substance, the IC50 [3] was 0.074 µg/mL, the IC80 [3] was 0.307 µg/mL and the MPI [3] was 100. For the same substance, the IC50 [4] was 0.132 µg/mL, the IC80 [4] was 0.366 µg/mL and the MPI [4] was 100. It also gave an IC50 [5] of 0.552 µg/mL, an IC80 [5] of 2.26 µg/mL and an MPI [5] of 100. For the same substance, the IC50 [6] was 0.285 µg/mL, the IC80 [6] was 0.986 µg/mL and the MPI [6] was 100. The IC50 [7] was 0.154 µg/mL, the IC80 [7] was 0.519 µg/mL and the MPI [7] was 99. For the same substance, the IC50 [8] was > 50 µg/mL, the IC80 [8] was > 50 µg/mL and the MPI [8] was 32. For the same substance, the IC50 [9] was 0.294 µg/mL, the IC80 [9] was 1.99 µg/mL and the MPI [9] was 98. It also gave an IC50 [10] of 0.364 µg/mL, an IC80 [10] of 1.7 µg/mL and an MPI [10] of 100. For the same substance, the IC50 [11] was 0.031 µg/mL, the IC80 [11] was 0.136 µg/mL and the MPI [11] was 100. It also gave an IC50 [12] of 0.465 µg/mL, an IC80 [12] of 2.43 µg/mL and an MPI [12] of 97. For the same substance, the IC50 [13] was 0.259 µg/mL, the IC80 [13] was 0.693 µg/mL and the MPI [13] was 100. For the same substance, the IC50 [14] was 0.026 µg/mL, the IC80 [14] was 0.09 µg/mL and the MPI [14] was 100. It also gave an IC50 [15] of 0.123 µg/mL, an IC80 [15] of 0.462 µg/mL and an MPI [15] of 99. The IC50 [16] was 0.03 µg/mL, the IC80 [16] was 0.081 µg/mL and the MPI [16] was 100. It also gave an IC50 [17] of 0.341 µg/mL, an IC80 [17] of 1.69 µg/mL and an MPI [17] of 97. The IC50 [18] was 0.023 µg/mL, the IC80 [18] was 0.178 µg/mL and the MPI [18] was 100. It also gave an IC50 [19] of 1.09 µg/mL, an IC80 [19] of 9.96 µg/mL and an MPI [19] of 98. It also gave an IC50 [20] of 0.271 µg/mL, an IC80 [20] of 0.953 µg/mL and an MPI [20] of 100. The IC50 [21] was 0.019 µg/mL, the IC80 [21] was 0.057 µg/mL and the MPI [21] was 100. For the same substance, the IC50 [22] was 0.044 µg/mL, the IC80 [22] was 0.177 µg/mL and the MPI [22] was 100. The IC50 [23] was 0.063 µg/mL, the IC80 [23] was 0.162 µg/mL and the MPI [23] was 100. The IC50 [24] was 0.224 µg/mL, the IC80 [24] was 0.863 µg/mL and the MPI [24] was 97. It also gave an IC50 [25] of 0.622 µg/mL, an IC80 [25] of 3.3 µg/mL and an MPI [25] of 100.
